Measured values: publication PMC12133307, “Structure, kinetics, and mechanism of Pseudomonas putida sulfoquinovose dehydrogenase, the first enzyme in the sulfoglycolytic Entner-Doudoroff pathway” (Biochemical Journal, 2025)

Biological target: the molecule itself
Assay: SEC-MALS; SEC-MALLS, Superdex S200 10/300 GL, 100 mM Tris pH 7.5, 300 mM NaCl, 100 µl at ~2 mg/ml, 0.5 ml/min, 20 °C

B1: Pseudomonas putida SQ dehydrogenase (PpSQDH) (enzyme, Pseudomonas putida SQ1)
chain: MNRHTDTHYPSLADKVVLISGGASGIGRAFVEAFVAQGSRVAFLDLDAEAGQGLAHALGANSLFLPCDVRDIERLKACVAEVERTWGAVDVLINNAARDDRHALADVSVEYWDERMQTNLRHAFFAAQAVAPGMARRGSGAIINMGSISWMRGRPGMVCYTTAKAALNGMTRTLARELGGQGIRINSLVPGAIRTERQDAMWAADPAGLEAASQAFIDQQMLKFRLDASDCARLALFLASDDSRGCTGQNFVVDAGLSIQ
notes: SQ dehydrogenase PpSQ1_00090 of Pseudomonas putida SQ1; Gln260 is the C-terminal residue; no step that removes the tag is described; A second preparation for kinetics was made in 'NEB T7 Express' E. coli (HisTrap, Superdex 75); also called sulfoquinovose dehydrogenase; PpSQ1_00090; source: E. coli BL21(DE3), purified (Ni-NTA IMAC, SEC)
With B1 the “stoichiometry N” value was 4.
